This is an account of results in the supplement of paper PMC9170038.

The series concerns MS2 coat protein. The series is described as follows: apparent KD of MS2 coat protein; designed switch direction (-1 OFF switch, 1 ON switch): -1; higher = weaker reporter binding. Put shortly: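 Stalled E. coli RNA polymerase transcribed designed RNA switches on Illumina chips, which were then titrated with SNAP-549-labelled MS2 coat protein, doubling from 0.7 or 1.5 nM to 3 µM. Steps lasted from 0.8–1.5 h at the lowest concentration to 10–20 min at the highest. The apparent KD is each design's median over clusters of curve-fitted normalised fluorescence.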

The mark [1] stands for this setting: Eterna round: R95, input ligand: microRNA oligo, concentration not stated.
The mark [2] stands for this setting: Eterna round: R95, input ligand: FMN 200 uM.
Where [3] appears, read: Eterna round: R95, input ligand: none.
Setting [4] is: input ligand: microRNA oligo, concentration not stated.

Take “CAGCUGAAAGUCAGGAUAUCUAGAGCUUCGGCUCUAGAGAAGGGACAUGAGGAUCACCCAUGUCACUCCAGCUG [BmEx4/3-A1] (Eterna round: R97, puzzle: Brourd's mod of Exclusion 4)”: the “apparent KD of MS2 coat protein” value was 0.0189 µM (input ligand: FMN 200 uM) and 0.0182 µM (input ligand: none). For “CAGGAAAUAGAGGAUAUAGGAGUCGAUAGACUCCUAGAAGGCUAUACAUGAGGAUCACCCAUGUGUCCUACCUG [Fiskers Ex 6 - 69] (puzzle: Exclusion 6)”, the “apparent KD of MS2 coat protein” value under setting [1] amounted to 0.0146 µM. Still for that read-out and setting: the value for “CAGGAUAGAGGAUAUACAUAGAUACAGAUUCAUGUGGUCCUACAUGAGGAUCACCCAUGUAGAAGGCUAUCCUG [Fiskers Ex 2 - 22] (puzzle: Exclusion 2)” was 0.18 µM. Regarding “CAGGCUACAAACGCUCGUCACAUGAGGAUCACCCAUGUACGCCUCUAUCGUAAGUCCAGCGUUCGCUGGCAAGGGUA [Eternabot (Original) Solution 19] (Eterna round: R97, puzzle: Sensor, turn-off variant 1)”, the “apparent KD of MS2 coat protein” value runs as follows: (input ligand: FMN 200 uM) 0.0475 µM; (input ligand: none) 0.0562 µM. Consider “CAGGGUAGAGGAUAUACGUAGGUACAGAUCUGUGUGUUCCUACAUGAGGAUCACCCAUGUAGAAGGCUAGCCUG [LRO-Excl2-08] (puzzle: Exclusion 2)”, for which, under setting [1], the “apparent KD of MS2 coat protein” value came out at 0.0779 µM. As for “CAGUACAGAGGAUAUACAUGAGGAUCACCCAUGUGUUUCAGCUAGGAGACUAGCGAAAGUAGAAGGCUGUACUA [salish99_ex3_r4_003] (Eterna round: R97, puzzle: Exclusion 3)”, the “apparent KD of MS2 coat protein” value came out at 0.0257 µM (input ligand: FMN 200 uM) and 0.00941 µM (input ligand: none).

As to “CAGUACUACAAGCUUAGGGACAUGAGGAUCACCCAUGUUCGUCUUAUUGAUCUAGGUACGCUGACGUACCUAGAUCU [JL-sv1-2.12 Brourd mod] (puzzle: Sensor v3, turn-off variant 1)”, the “apparent KD of MS2 coat protein” value is, setting by setting: under setting [2], 0.0157 µM; under setting [1], 0.0299 µM; under setting [3], 0.015 µM. On the same counts, the results for “CAGUACUACAAGCUUUGGGACAUGAGGAUCACCCAUGUUCGUCUUAUUGAUCUAGGUACGCUGACGUACCUAGAUCU [JL-sv1-2.11 Brourd mod] (puzzle: Sensor v3, turn-off variant 1)” are 0.0167 µM, 0.0331 µM and 0.0153 µM. In the case of “CAGUACUGAGGAUAUACAUGAGGAUCACCCAUGUAUCCAAGCUAGGAAACUAGCAAAUGUAGAAGGCAGUACUG [Ex3: 821] (Eterna round: R96, puzzle: Exclusion 3)”, under setting [4], the “apparent KD of MS2 coat protein” value turned out to be 0.0309 µM. The same measure, in the same setting: next, “CAGUACUGAGGAUAUACAUGAGGAUCACCCAUGUAUCCUAGCUAGGAAACUAGCAAAAGUAGAAGGCAGUACUG [Ex3: 819] (Eterna round: R96, puzzle: Exclusion 3)”: 0.0124 µM. Take “CAGUACUGAGGAUAUACAUGAGGAUCACCCAUGUCAGAGAUACUAGUGAGGUCGAUUAGUAGAAGGCAGUACUG [Mat X3R4 m30] (Eterna round: R97, puzzle: Exclusion 3)”: the “apparent KD of MS2 coat protein” value by setting is: (input ligand: FMN 200 uM) 0.621 µM; (input ligand: none) 0.0435 µM. With “CAGUACUGAGGAUAUACAUGAGGAUCACCCAUGUCCUAAAAGUAGGAUACUACUAUUAGUAGAAGGCAGUACUG [Fiskers Ex 3 828 mod 23] (puzzle: Exclusion 3)”, the “apparent KD of MS2 coat protein” value under setting [1] turned out to be 0.0181 µM. Turning to “CAGUACUGAGGAUAUACAUGAGGAUCACCCAUGUCUUCCAGCUAGGAAACUAGCAAAUGUAGAAGGCAGUACUG [Salish 065 m9] (Eterna round: R97, puzzle: Exclusion 3)”, the “apparent KD of MS2 coat protein” value came out at 0.639 µM (input ligand: FMN 200 uM) and 0.0718 µM (input ligand: none). As to “CAGUACUGAGGAUAUACAUGAGGAUCACCCAUGUGAGAGAUACUAGUGAGGUCGAUUAGUAGAAGGCGGUACUG [Mat X3R4 m5] (Eterna round: R97, puzzle: Exclusion 3)”, the “apparent KD of MS2 coat protein” value runs as follows: (input ligand: FMN 200 uM) 0.306 µM; (input ligand: none) 0.0408 µM. Turning to “CAGUACUGAGGAUAUACAUGAGGAUCACCCAUGUGAUGUAGUGCACGCGUACGUGUACGUAGAAGGCAGUACUG [JL 3.27 m10] (Eterna round: R97, puzzle: Exclusion 3)”, the “apparent KD of MS2 coat protein” value is, setting by setting: (input ligand: FMN 200 uM) 0.0493 µM; (input ligand: none) 0.0171 µM. On to “CAGUACUGAGGAUAUACAUGAGGAUCACCCAUGUGAUUGAGUGCACGCGUACGUGUACGUAGAAGGCAGUACUG [JL 3.27 m11] (Eterna round: R97, puzzle: Exclusion 3)”, for which the “apparent KD of MS2 coat protein” value worked out at 0.194 µM (input ligand: FMN 200 uM) and 0.0181 µM (input ligand: none). In the case of “CAGUACUGAGGAUAUACAUGAGGAUCACCCAUGUGCACCAGCUAGGAAACUAGCAAAAGUAGAAGGCAGUACUG [828 mod 2 m9] (Eterna round: R97, puzzle: Exclusion 3)”, the “apparent KD of MS2 coat protein” value is 0.112 µM (input ligand: FMN 200 uM) and 0.0155 µM (input ligand: none). As to “CAGUACUGAGGAUAUACAUGAGGAUCACCCAUGUGUCCUAGCUAGGAAACUAGCAAAAGUAGAAGGCAGUACUG [Fiskers Ex 3 828 mod 5] (puzzle: Exclusion 3)”, the “apparent KD of MS2 coat protein” value under setting [2] worked out at 0.249 µM, the “apparent KD of MS2 coat protein” value under setting [1] was found to be 0.0212 µM and the “apparent KD of MS2 coat protein” value under setting [3] was determined as 0.0229 µM. As for “CAGUACUGAGGAUAUACAUGAGGAUCACCCAUGUGUCCUCUAUUAGGAAACUAGUUAUGUAGAAGGCAGUACUG [Omei Ex3 Mod of Eli 4.27 v10] (Eterna round: R97, puzzle: Exclusion 3)”, the “apparent KD of MS2 coat protein” value reads like this: (input ligand: FMN 200 uM) 1.05 µM; (input ligand: none) 1.05 µM. As for “CAGUACUGAGGAUAUACAUGAGGAUCACCCAUGUGUGUGAAAUUUAUGUGGUUGUUUUGUAGAAGGCAGUACUG [JR_Ex3_Sub029] (Eterna round: R97, puzzle: Exclusion 3)”, the “apparent KD of MS2 coat protein” value is, setting by setting: (input ligand: FMN 200 uM) 0.0921 µM; (input ligand: none) 0.855 µM. “CAGUACUGAGGAUAUACAUGAGGAUCACCCAUGUGUGUGAGAAAAGGAAGAAAAGAAUGUAGAAGGCGGUGCUG [JR_Ex3_Sub040] (Eterna round: R97, puzzle: Exclusion 3)”: the “apparent KD of MS2 coat protein” value runs as follows: (input ligand: FMN 200 uM) 0.24 µM; (input ligand: none) 0.486 µM.

In the case of “CAGUACUGAGGAUAUACAUGAGGAUCACCCAUGUGUGUGAGAAUUGUGUGGUUGUUUUGUAGAAGGCGGUGCUG [JR_Ex3_Sub032] (Eterna round: R97, puzzle: Exclusion 3)”, the “apparent KD of MS2 coat protein” value (input ligand: FMN 200 uM) is 0.326 µM and the “apparent KD of MS2 coat protein” value (input ligand: none) amounted to 0.346 µM. Regarding “CAGUACUGAGGAUAUACAUGAGGAUCACCCAUGUGUUCCAGCUAGGAAACUAGCAAAAUUAGAAGGCAGUACUG [salish99_ex3_r3_087] (puzzle: Exclusion 3)”, the “apparent KD of MS2 coat protein” value under setting [1] amounted to 0.0113 µM. As to “CAGUACUGAGGAUAUACAUGAGGAUCACCCAUGUGUUCCAGCUAGGAAACUAGCAAAUGUAGAAGGCAGUACUG [Ex3: 827] (Eterna round: R96, puzzle: Exclusion 3)”, the “apparent KD of MS2 coat protein” value under setting [4] was found to be 0.216 µM. In the case of “CAGUACUGAGGAUAUACAUGAGGAUCACCCAUGUGUUCCAGCUAGGAAACUAGCAAAUGUAGAAGGCAGUACUG [Salish 065 m8] (Eterna round: R97, puzzle: Exclusion 3)”, the “apparent KD of MS2 coat protein” value (input ligand: FMN 200 uM) is 0.0451 µM and the “apparent KD of MS2 coat protein” value (input ligand: none) was found to be 0.323 µM.
